These results are taken from article PMC8609353.

Test [1] addresses N1-VASP: recombinant N1 neuraminidase head domain of A/Michigan/45/2015 (H1N1) fused to the vasodilator-stimulated phosphoprotein tetramerization domain (human | influenza A virus A/Michigan/45/2015 (H1N1)). Put plainly: cross-linking.
Test [2] addresses N1-SPP: recombinant N1 neuraminidase head domain of A/Michigan/45/2015 (H1N1) fused to the Sendai virus phosphoprotein tetramerization domain (Sendai virus | influenza A virus A/Michigan/45/2015 (H1N1)). Briefly: cross-linking.
Test [3] has as its target N1-MPP: recombinant N1 neuraminidase head domain of A/Michigan/45/2015 (H1N1) fused to the measles virus phosphoprotein tetramerization domain (measles virus | influenza A virus A/Michigan/45/2015 (H1N1)). Put plainly: cross-linking.
Test [4] deals with N1 NA head domain from A/Michigan/45/2015 (H1N1), obtained from N1-MPP by thrombin cleavage (influenza A virus A/Michigan/45/2015 (H1N1)). Briefly: crystal structure; N1 head after thrombin removal of the MPP domain; sitting drop, 0.2 M calcium acetate, 20% PEG 3350, 20°C; 2.90 Å.

A word on the stoichiometry N: it is a count of units in the complex or per binding partner. For “N1-VASP: recombinant N1 neuraminidase head domain of A/Michigan/45/2015 (H1N1) fused to the vasodilator-stimulated phosphoprotein tetramerization domain”, the stoichiometry N in test [1] was determined as 4. Regarding “N1-SPP: recombinant N1 neuraminidase head domain of A/Michigan/45/2015 (H1N1) fused to the Sendai virus phosphoprotein tetramerization domain”, the stoichiometry N in test [2] worked out at 4. As for “N1-MPP: recombinant N1 neuraminidase head domain of A/Michigan/45/2015 (H1N1) fused to the measles virus phosphoprotein tetramerization domain”, in test [3], the stoichiometry N amounted to 4. As to “N1 NA head domain from A/Michigan/45/2015 (H1N1), obtained from N1-MPP by thrombin cleavage (domain or fragment)”, the stoichiometry N in test [4] is 4.
